The source of these data is PMC5802732, “A chiral selectivity relaxed paralog of DTD for proofreading tRNA mischarging in Animalia” (Nature Communications, 2018).

The data set deals with the molecule itself. In words: crystal structure; un-tagged MmATD alone; sitting-drop vapor diffusion, reservoir 0.1 M Bicine (pH 8.0) and 15% PEG1500; 1.86 Å; two monomers per asymmetric unit.

B1: Animalia-specific tRNA deacylase from Mus musculus (enzyme)
chain: MADGGRVAQARALLQQCLHARLQVRPADGDAAAQWVEIRRGLVIYVCFFKGADTDLLPKMVNTLLNVKLSETETGKHVSILDLPGDVLIIPQATLGGRVKGRSMQYHSNSGKEEGSELYSQFVSLCEKAVANNTKSVEAGVAVAHGTYGNRQVLKLDTNGPYTHLIEF
notes: ATD (Animalia-specific tRNA deacylase, annotated in databases as probable DTD2) from Mus musculus; un-tagged protein used for crystallisation; gene PCR-amplified from cDNA into pET-28b; Homodimer in the crystal (two monomers per asymmetric unit, 325 residues modelled); also called MmATD; ATD; source: E. coli Rosetta(DE3), purified (cation exchange chromatography, SEC)
As for B1, the binding result was “binds”.
